{"source": "the Human Domainome abundance scans (Beltran et al. 2025)", "parents": {"B1": {"name": "Tumor protein p73, residues 487 to 549; numbered along this chain, O15350 (parent)", "chain": "YHADPSLVSFLTGLGCPNCIEYFTSQGLQSIYHLQNLTIEDLGALKIPEQYRMTIWRGLQDLK"}, "B2": {"name": "Homeobox protein SIX3, residues 212 to 262; numbered along this chain, O95343 (parent)", "chain": "CFKERTRSLLREWYLQDPYPNPSKKRELAQATGLTPTQVGNWFKNRRQRDR"}}, "note": "± gives the uncertainty stated by the source.", "data": [{"variants_of": "B1", "test": "abundance fitness (aPCA) (normalised: wild type 0, dead -1); higher = more abundant; growth selection in yeast, the domain comes from the species named", "details": "Homo sapiens", "values": [{"variant": "YHADPSLVSFLTGLGCPNCIEYFTSQGLQSIYHLQNLTIEDLGALKIPEQYRMTIWRGGQDLK", "note": "[L59G]", "abundance fitness": "-0.538 ± 0.075"}, {"variant": "QHADPSLVSFLTGLGCPNCIEYFTSQGLQSIYHLQNLTIEDLGALKIPEQYRMTIWRGLQDLK", "note": "[Y1Q]", "abundance fitness": "-0.195 ± 0.093"}, {"variant": "YHADPSLVSFLTGLGCPNCIEYFTSQGLQSIYHLQNLTIEDLGALKIPEQYRMTIPRGLQDLK", "note": "[W56P]", "abundance fitness": "-0.893 ± 0.13"}, {"variant": "YHADPSLVSFLWGLGCPNCIEYFTSQGLQSIYHLQNLTIEDLGALKIPEQYRMTIWRGLQDLK", "note": "[T12W]", "abundance fitness": "-0.216 ± 0.035"}, {"variant": "YHADPSLVSFLTGLGCPNCIEYFTSQGLQSIYFLQNLTIEDLGALKIPEQYRMTIWRGLQDLK", "note": "[H33F]", "abundance fitness": "-0.344 ± 0.099"}, {"variant": "YHADPSLVSFLTGLGCPNCIEYFTSQGLQSIYHLQNLTIEDLGALIIPEQYRMTIWRGLQDLK", "note": "[K46I]", "abundance fitness": "-0.345 ± 0.084"}, {"variant": "YHADPSLVSFLTGLGCPNCIEYFTSQGLQSIYHLPNLTIEDLGALKIPEQYRMTIWRGLQDLK", "note": "[Q35P]", "abundance fitness": "-0.184 ± 0.073"}, {"variant": "YHADPSLVSFLTGLGCPNCIEYFTSQCLQSIYHLQNLTIEDLGALKIPEQYRMTIWRGLQDLK", "note": "[G27C]", "abundance fitness": "-0.448 ± 0.059"}, {"variant": "YHADPSLVSFLTGLGCPNCIEYFTSQGLQSIYHLQNLTIEDLGALKIPEQYRMTIWRGLDDLK", "note": "[Q60D]", "abundance fitness": "-0.01 ± 0.058"}, {"variant": "YHADPSLVSFLTGLGCPNCIEYFTSQGLQSIYHLQNLTIEDLGALKIPEQYRMTIWRGLYDLK", "note": "[Q60Y]", "abundance fitness": "0.06 ± 0.1"}, {"variant": "YHADPSLVSFLTGLGCPNCIEYFTSQGLQSIYHLQNLTIEDLGALKIPEQYRMTIWRGLQDLH", "note": "[K63H]", "abundance fitness": "-0.34 ± 0.37"}, {"variant": "YHADPSLVSFLTGLGCPNCIEYFTSQGLQSIYHLQNHTIEDLGALKIPEQYRMTIWRGLQDLK", "note": "[L37H]", "abundance fitness": "-0.063 ± 0.12"}, {"variant": "YHADPSLVSFLTGLGCPNCIEYFTSQGLQSIYHLQNFTIEDLGALKIPEQYRMTIWRGLQDLK", "note": "[L37F]", "abundance fitness": "0.02 ± 0.064"}, {"variant": "YHADPSLVSFLTGLGCPNCIEYFTSQGLQSIYHLQNTTIEDLGALKIPEQYRMTIWRGLQDLK", "note": "[L37T]", "abundance fitness": "-0.039 ± 0.065"}, {"variant": "YHADWSLVSFLTGLGCPNCIEYFTSQGLQSIYHLQNLTIEDLGALKIPEQYRMTIWRGLQDLK", "note": "[P5W]", "abundance fitness": "0.021 ± 0.043"}, {"variant": "YHADPSLVSFLTGLGCPNCIEYFTSQGLQSIYHLQNLTIYDLGALKIPEQYRMTIWRGLQDLK", "note": "[E40Y]", "abundance fitness": "-0.215 ± 0.13"}, {"variant": "YHADPSLVSFLTGLGCPNCIEYFTSQGLQGIYHLQNLTIEDLGALKIPEQYRMTIWRGLQDLK", "note": "[S30G]", "abundance fitness": "-0.086 ± 0.03"}, {"variant": "YHADPSLVSFLTRLGCPNCIEYFTSQGLQSIYHLQNLTIEDLGALKIPEQYRMTIWRGLQDLK", "note": "[G13R]", "abundance fitness": "0.008 ± 0.031"}, {"variant": "YHADPSLVSFLTGLGCPNCIEYFTSQGLQSIYHLQNLTIEDLGDLKIPEQYRMTIWRGLQDLK", "note": "[A44D]", "abundance fitness": "0.174 ± 0.085"}]}, {"variants_of": "B2", "test": "abundance fitness (aPCA) (normalised: wild type 0, dead -1); higher = more abundant; growth selection in yeast, the domain comes from the species named", "details": "Homo sapiens", "values": [{"variant": "CIKERTRSLLREWYLQDPYPNPSKKRELAQATGLTPTQVGNWFKNRRQRDR", "note": "[F2I]", "abundance fitness": "-0.047 ± 0.1"}, {"variant": "CPKERTRSLLREWYLQDPYPNPSKKRELAQATGLTPTQVGNWFKNRRQRDR", "note": "[F2P]", "abundance fitness": "-0.258 ± 0.044"}, {"variant": "CMKERTRSLLREWYLQDPYPNPSKKRELAQATGLTPTQVGNWFKNRRQRDR", "note": "[F2M]", "abundance fitness": "0.253 ± 0.089"}, {"variant": "CDKERTRSLLREWYLQDPYPNPSKKRELAQATGLTPTQVGNWFKNRRQRDR", "note": "[F2D]", "abundance fitness": "0.361 ± 0.076"}, {"variant": "CRKERTRSLLREWYLQDPYPNPSKKRELAQATGLTPTQVGNWFKNRRQRDR", "note": "[F2R]", "abundance fitness": "-0.324 ± 0.048"}, {"variant": "CAKERTRSLLREWYLQDPYPNPSKKRELAQATGLTPTQVGNWFKNRRQRDR", "note": "[F2A]", "abundance fitness": "-0.183 ± 0.06"}, {"variant": "CTKERTRSLLREWYLQDPYPNPSKKRELAQATGLTPTQVGNWFKNRRQRDR", "note": "[F2T]", "abundance fitness": "-0.106 ± 0.074"}, {"variant": "CCKERTRSLLREWYLQDPYPNPSKKRELAQATGLTPTQVGNWFKNRRQRDR", "note": "[F2C]", "abundance fitness": "-0.315 ± 0.092"}, {"variant": "CEKERTRSLLREWYLQDPYPNPSKKRELAQATGLTPTQVGNWFKNRRQRDR", "note": "[F2E]", "abundance fitness": "0.037 ± 0.062"}, {"variant": "CWKERTRSLLREWYLQDPYPNPSKKRELAQATGLTPTQVGNWFKNRRQRDR", "note": "[F2W]", "abundance fitness": "-0.538 ± 0.1"}, {"variant": "CYKERTRSLLREWYLQDPYPNPSKKRELAQATGLTPTQVGNWFKNRRQRDR", "note": "[F2Y]", "abundance fitness": "0.079 ± 0.093"}, {"variant": "CNKERTRSLLREWYLQDPYPNPSKKRELAQATGLTPTQVGNWFKNRRQRDR", "note": "[F2N]", "abundance fitness": "0.149 ± 0.11"}, {"variant": "CKKERTRSLLREWYLQDPYPNPSKKRELAQATGLTPTQVGNWFKNRRQRDR", "note": "[F2K]", "abundance fitness": "0.009 ± 0.1"}, {"variant": "CQKERTRSLLREWYLQDPYPNPSKKRELAQATGLTPTQVGNWFKNRRQRDR", "note": "[F2Q]", "abundance fitness": "-0.178 ± 0.095"}, {"variant": "CGKERTRSLLREWYLQDPYPNPSKKRELAQATGLTPTQVGNWFKNRRQRDR", "note": "[F2G]", "abundance fitness": "-0.04 ± 0.045"}, {"variant": "CLKERTRSLLREWYLQDPYPNPSKKRELAQATGLTPTQVGNWFKNRRQRDR", "note": "[F2L]", "abundance fitness": "-0.022 ± 0.067"}, {"variant": "CHKERTRSLLREWYLQDPYPNPSKKRELAQATGLTPTQVGNWFKNRRQRDR", "note": "[F2H]", "abundance fitness": "-0.083 ± 0.052"}, {"variant": "CFKERHRSLLREWYLQDPYPNPSKKRELAQATGLTPTQVGNWFKNRRQRDR", "note": "[T6H]", "abundance fitness": "0.086 ± 0.31"}, {"variant": "CFKERIRSLLREWYLQDPYPNPSKKRELAQATGLTPTQVGNWFKNRRQRDR", "note": "[T6I]", "abundance fitness": "0.288 ± 0.088"}, {"variant": "CFKERCRSLLREWYLQDPYPNPSKKRELAQATGLTPTQVGNWFKNRRQRDR", "note": "[T6C]", "abundance fitness": "-0.533 ± 0.2"}, {"variant": "CFKERGRSLLREWYLQDPYPNPSKKRELAQATGLTPTQVGNWFKNRRQRDR", "note": "[T6G]", "abundance fitness": "-0.192 ± 0.082"}, {"variant": "CFKERERSLLREWYLQDPYPNPSKKRELAQATGLTPTQVGNWFKNRRQRDR", "note": "[T6E]", "abundance fitness": "-0.287 ± 0.061"}, {"variant": "CFKERARSLLREWYLQDPYPNPSKKRELAQATGLTPTQVGNWFKNRRQRDR", "note": "[T6A]", "abundance fitness": "-0.268 ± 0.078"}, {"variant": "CFKERFRSLLREWYLQDPYPNPSKKRELAQATGLTPTQVGNWFKNRRQRDR", "note": "[T6F]", "abundance fitness": "-0.504 ± 0.059"}, {"variant": "CFKERKRSLLREWYLQDPYPNPSKKRELAQATGLTPTQVGNWFKNRRQRDR", "note": "[T6K]", "abundance fitness": "-0.513 ± 0.26"}, {"variant": "CFKKRTRSLLREWYLQDPYPNPSKKRELAQATGLTPTQVGNWFKNRRQRDR", "note": "[E4K]", "abundance fitness": "-0.152 ± 0.14"}, {"variant": "CFKFRTRSLLREWYLQDPYPNPSKKRELAQATGLTPTQVGNWFKNRRQRDR", "note": "[E4F]", "abundance fitness": "-0.226 ± 0.31"}, {"variant": "CFKDRTRSLLREWYLQDPYPNPSKKRELAQATGLTPTQVGNWFKNRRQRDR", "note": "[E4D]", "abundance fitness": "-0.532 ± 0.47"}, {"variant": "CFKSRTRSLLREWYLQDPYPNPSKKRELAQATGLTPTQVGNWFKNRRQRDR", "note": "[E4S]", "abundance fitness": "-0.136 ± 0.065"}, {"variant": "CFKNRTRSLLREWYLQDPYPNPSKKRELAQATGLTPTQVGNWFKNRRQRDR", "note": "[E4N]", "abundance fitness": "-0.357 ± 0.42"}]}]}
